Common to all, as to details: 20 nM; 72 h
The test system of series [1] is MCF10A. As to the kind of experiment: 5+ nucleoli phenotype percent effect (relative to siNT 0% and siKIF11 100%); higher = more cells with five or more nucleoli. Here is the method: (§1)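 After 72 h, cells were fixed and stained with Hoechst and anti-fibrillarin, and nucleoli per nucleus were counted with CellProfiler. Values are plate-adjusted percent effect for the one-nucleolus and 5+ nucleoli phenotypes, normalised to siNT (0%) and to the positive controls siNOL11 or siKIF11 (100%), as the mean of biological triplicates. Percent viability is the nuclei count relative to siNT.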

Series [2] concerns MCF10A. As to the kind of experiment: one-nucleolus phenotype percent effect (relative to siNT 0% and siNOL11 100%); higher = more cells with one nucleolus (ribosome biogenesis inhibition). Here is the method: as §1
Series [3] concerns MCF10A. As to the kind of experiment: percent viability (nuclei count relative to siNT); higher = more viable cells. Here is the method:
as §1

Turning to “CGCGCCUGCAGGAACUGGUAGA [hsa-miR-6720-3p]”, the “5+ nucleoli phenotype percent effect” value in the series with MCF10A [1] was determined as 71.3%. Besides, the “one-nucleolus phenotype percent effect” value in the series on MCF10A [2] is -13.6%. Also, in the series with MCF10A [3], the percent viability stood at 57.7%.
Consider CGCGCGGCCGUGCUCGGAGCAG [hsa-miR-4479], for which, in the series with MCF10A [1], the “5+ nucleoli phenotype percent effect” value is -37.9%. In addition, the “one-nucleolus phenotype percent effect” value in the series with MCF10A [2] was 54.5%. Moreover, the percent viability in the series with MCF10A [3] stood at 34.8%.
Take CGCGGGCGCUCCUGGCCGCCGCC [hsa-miR-4767]: the “5+ nucleoli phenotype percent effect” value in the series on MCF10A [1] amounted to 26.9%. For the same sequence, in the series with MCF10A [2], the “one-nucleolus phenotype percent effect” value was -12.9%. Also, the percent viability with MCF10A [3] turned out to be 58.8%.
The matching figures for CGCGGGUCGGGGUCUGCAGG [hsa-miR-3621]: -3.13%, -5.2% and 57.8%.
Turning to CGCUCUAGGCACCGCAGCA [hsa-miR-1301-5p], the “5+ nucleoli phenotype percent effect” value in the series on MCF10A [1] stood at 95.7%. Further, in the series with MCF10A [2], the “one-nucleolus phenotype percent effect” value was -24.1%. Also, the percent viability in the series with MCF10A [3] was found to be 77.5%.
The matching figures for CGCUUUGCUCAGCCAGUGUAG [hsa-miR-1251-3p]: -13.1%, 18.6% and 76.2%.
The matching figures for “CGGAUGAGCAAAGAAAGUGGUU [hsa-miR-1255b-5p]”: 45.2%, -12.5% and 64.1%.
The matching figures for “CGGCAACAAGAAACUGCCUGAG [hsa-miR-196a-3p]”: -32.7%, 37.8% and 25.1%.
For the sequence “CGGCCCCACGCACCAGGGUAAGA [hsa-miR-874-5p]”, in the series with MCF10A [1], the “5+ nucleoli phenotype percent effect” value is 38.1%. The “one-nucleolus phenotype percent effect” value in the series with MCF10A [2] is -19.8%. In addition, the percent viability in the series on MCF10A [3] stood at 85.9%.
Take CGGCCCGGGCUGCUGCUGUUCCU [hsa-miR-1538]: the “5+ nucleoli phenotype percent effect” value with MCF10A [1] amounted to 45%. In addition, in the series on MCF10A [2], the “one-nucleolus phenotype percent effect” value was -27.8%. For the same sequence, the percent viability in the series on MCF10A [3] was 144%.
The matching figures for CGGCGCCCGUGUCUCCUCCAG [hsa-miR-6789-3p]: 32.6%, -9.93% and 59.9%.
The matching figures for CGGCGCGACCGGCCCGGGG [hsa-miR-4634]: 24.7%, -14.3% and 71.2%.
The matching figures for CGGCUCUGGGUCUGUGGGGA [hsa-miR-760]: -2.61%, 7.07% and 53%.
Take CGGCUGGAGGUGUGAGGA [hsa-miR-3652]: the “5+ nucleoli phenotype percent effect” value in the series with MCF10A [1] was -23.6%. In addition, the “one-nucleolus phenotype percent effect” value in the series on MCF10A [2] was found to be 44.8%. Also, the percent viability with MCF10A [3] stood at 24%.
For CGGGACUGUAGAGGGCAUGAGC [hsa-miR-8052] the same measures were 28.9%, 4.6% and 42.4%.
As for CGGGAGCUGGGGUCUGCAGGU [hsa-miR-6726-5p], the “5+ nucleoli phenotype percent effect” value in the series on MCF10A [1] amounted to 58.1%. For the same sequence, in the series on MCF10A [2], the “one-nucleolus phenotype percent effect” value was -17.2%. In addition, in the series on MCF10A [3], the percent viability came to 73%.
For “CGGGCAUGCUGGGAGAGACUUU [hsa-miR-6862-5p]” the same measures were -13%, 31.7% and 21.6%.
On to CGGGCCGGAGGUCAAGGGCGU [hsa-miR-6781-5p], for which the “5+ nucleoli phenotype percent effect” value with MCF10A [1] was 54.4%. Further, the “one-nucleolus phenotype percent effect” value in the series on MCF10A [2] was -2.25%. In the series on MCF10A [3], the percent viability is 46.3%.
The matching figures for CGGGCGUGGUGGUGGGGG [hsa-miR-1268a]: 44.8%, -19.1% and 96.6%.
The matching figures for CGGGCGUGGUGGUGGGGGUG [hsa-miR-1268b]: 35.6%, 8.5% and 36.5%.
The matching figures for CGGGCUGUCCGGAGGGGUCGGCU [hsa-miR-4741]: 42.5%, -21.4% and 65.1%.
On to CGGGGAGAGAACGCAGUGACGU [hsa-miR-3175], for which the “5+ nucleoli phenotype percent effect” value with MCF10A [1] is -3.98%. Also, the “one-nucleolus phenotype percent effect” value in the series with MCF10A [2] was determined as 5.01%. Moreover, in the series with MCF10A [3], the percent viability came to 33.4%.
As for CGGGGCAGCUCAGUACAGGAU [hsa-miR-486-3p], the “5+ nucleoli phenotype percent effect” value in the series with MCF10A [1] was -5.42%. Moreover, the “one-nucleolus phenotype percent effect” value with MCF10A [2] was found to be 47.2%. For the same sequence, in the series with MCF10A [3], the percent viability was found to be 10.1%.
The matching figures for CGGGGCCAGAGCAGAGAGC [hsa-miR-6845-5p]: 11.6%, 9.59% and 53.6%.

(Values after the supplement of paper PMC10899765.)
